Patent US20190010233A1 (JIANGSU HYAMAB PHARMACEUTICAL, published 2019)

T1: hPD-L2 (human, UniProt Q9BQ51 20-219, limits assumed)
T1 construct: Bought protein
T1 sequence (looked up): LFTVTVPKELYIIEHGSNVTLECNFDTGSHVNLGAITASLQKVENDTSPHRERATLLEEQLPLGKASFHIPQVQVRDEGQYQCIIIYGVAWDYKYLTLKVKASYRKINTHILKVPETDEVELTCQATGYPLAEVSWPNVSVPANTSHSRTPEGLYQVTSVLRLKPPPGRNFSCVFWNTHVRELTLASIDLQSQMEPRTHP


Tests used:
[1] = target: T2, full length cyno PD-L1 on cells (cyno, UniProt G7PSE7 19-290); experiment: FACS CHO-K1-cPD-L1, 0.41 nM mAb
T2 construct: also called CHO-K1-cPD-L1
T2 sequence (G7PSE7 entry or part of it limits assumed): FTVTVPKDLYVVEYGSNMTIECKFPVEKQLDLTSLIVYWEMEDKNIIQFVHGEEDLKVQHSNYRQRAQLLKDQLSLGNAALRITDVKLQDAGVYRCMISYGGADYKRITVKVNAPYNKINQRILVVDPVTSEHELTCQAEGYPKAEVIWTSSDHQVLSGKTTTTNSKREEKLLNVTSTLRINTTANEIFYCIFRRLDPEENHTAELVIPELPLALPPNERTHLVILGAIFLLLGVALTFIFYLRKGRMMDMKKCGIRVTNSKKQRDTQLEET
Method: (§1) Other CHO-K1 were stably transfected with a pIRES plasmid containing the nucleic acid sequence encoding full length cyno PD-L1 to generate CHO-K1 cells stably expressing cyno PD-L1 (herein referred to as CHO-K1-cPD-L1 cells). […] The culture media was aspirated, and the cells were washed twice with HBSS (Hanks Balanced Salt Solution, Invitrogen). The cells were treated with enzyme-free cell dissociation solution (Versene solution, Invitrogen) and collected. The cells were then washed twice with HBSS, cell counts were determined, and cells were resuspended with HBSS at 2×10⁶ cells/mL. Goat serum was added to the cell suspension to a final concentration of 1%, and the cells were blocked for 30 minutes on ice and then washed twice with HBSS. The cells were collected after centrifugation and resuspended in FACS buffer (HBSS+1% BSA, v/v) at 2×10⁶ cells/mL. 100 μL of the cell suspension were then added to each well of 96-well plate. 100 μL of purified anti-PD-L1 antibodies from Example 2 were added to each well of the 96-well plate and incubated for 2 hours on ice. […] The samples were washed three times with FACS buffer, and 100 μL fixation buffer (4% paraformaldehyde v/v) were added to each well and incubated for 10 minutes. The cells were then washed twice with FACS buffer and resuspended in 100 μL FACS buffer. The mean fluorescence intensity (MFI) was determined using FACS Calibur (BD), and the results are shown in FIGS. 7-8 and in Tables 10-11.

[2] = target: T3, human PD-L1^ECD-hFc protein (human, UniProt Q9NZQ7 19-239, biotinylated in the PD-1 binding ELISA (Table 3) and in the Octet assay (Table 12)); experiment: ELISA, mAb concentration not given
T3 construct: The plain and the biotinylated protein are kept as one molecule; also called PD-L1-hFc; Immunogen A; not shown: human IgG Fc fragment (hFc)
T3 sequence (Q9NZQ7 19-239): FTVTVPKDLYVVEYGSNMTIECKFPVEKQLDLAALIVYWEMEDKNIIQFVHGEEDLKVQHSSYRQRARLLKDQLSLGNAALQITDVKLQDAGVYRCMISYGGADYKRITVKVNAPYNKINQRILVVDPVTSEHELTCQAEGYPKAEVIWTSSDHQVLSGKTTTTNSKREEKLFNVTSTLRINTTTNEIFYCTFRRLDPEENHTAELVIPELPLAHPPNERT
Method: (§2) 100 μL of the diluted recombinant proteins were added to each well of 96-well plate. The plates were sealed with plastic film and incubated at 4° C. overnight. The plates were washed twice with wash buffer (PBS+0.01% (v/v) Tween20), and incubated with blocking buffer (PBS+0.01% (v/v) Tween20+1% (w/w) BSA) at room temperature for 2 hours. The blocking buffer was aspirated away, and 100 μL of purified anti-PD-L1 antibodies were added to each well and incubated for 2 hours at 37° C. The plates were washed three times with wash buffer (PBS+0.01% (v/v) Tween20). HRP-conjugated secondary antibody (Sigma) was added to each well and incubated for 2 hours at 37° C. After the plates were washed three times with wash buffer, 100 μL TMB substrate were added to each well, and the plates were incubated for 30 minutes at room temperature. 100 μL stop solution (0.1N HCl) was added to each well to stop the reaction.

[3] = target: T1, hPD-L2; experiment: ELISA, mAb concentration not given
Method: as §2

[4] = target: T1, hPD-L2; experiment: ELISA (numbers in Table 9)
Method: as §2

[5] = target: T4, cyno PD-L1^ECD-hFc protein (cyno, UniProt G7PSE7 19-239); experiment: ELISA, 1.111 nM mAb
T4 construct: also called Cyno Monkey PD-L1^ECD-hFc
T4 sequence (G7PSE7 entry or part of it limits assumed): as the sequence (Q9NZQ7 19-239) above, with A33T, A34S, S62N, R68Q, Q82R, F173L, T185A, T192I, H215L counted along it
Method: as §2

[6] = target: T3, human PD-L1^ECD-hFc protein; experiment: ELISA, 1.111 nM mAb
Method: as §2

[7] = target: T3, human PD-L1^ECD-hFc protein; experiment: ELISA receptor-ligand blocking assay: PD-L1^ECD-hFc coated on the plate, antibody titrated, blocked ligand biotinylated B7.1^ECD, HRP-streptavidin, inhibition rate (%)
Method: Purified PD-L1^ECD-hFc (Example 2) was diluted with PBS to a final concentration of 1.0 μg/mL, and 100 μL diluted PD-L1^ECD-hFc were added to each well of a 96-well plate that was then sealed with plastic film and incubated at 4° C. overnight. The plate was washed twice with wash buffer (PBS+0.01% (v/v) Tween 20) and incubated with blocking buffer (PBS+[…]) at room temperature for 2 hours. The blocking buffer was aspirated, and 50 μL purified anti-PD-L1 antibodies from Example 2 were added to each well of 96-well plate. […] The plate was washed three times with wash buffer (PBS+0.01% (v/v) Tween 20). 100 μL HRP-conjugated streptavidin (Sigma) were then added to each well and incubated at 37° C. for 2 hours. The plate was then washed three times with wash buffer, and 100 μL TMB substrate were added to each well. After 30 minutes of incubation at room temperature, the reaction was stopped by adding 100 μL stop solution (0.1N HCl).

[8] = target: T3, human PD-L1^ECD-hFc protein; experiment: ELISA, 0.1 nM mAb
Method: as §2

[9] = target: full length human PD-L1 on cells (human, UniProt Q9NZQ7 19-290); experiment: cell-based or functional assay
full length human PD-L1 on cells, sequence (Q9NZQ7 19-290 limits assumed): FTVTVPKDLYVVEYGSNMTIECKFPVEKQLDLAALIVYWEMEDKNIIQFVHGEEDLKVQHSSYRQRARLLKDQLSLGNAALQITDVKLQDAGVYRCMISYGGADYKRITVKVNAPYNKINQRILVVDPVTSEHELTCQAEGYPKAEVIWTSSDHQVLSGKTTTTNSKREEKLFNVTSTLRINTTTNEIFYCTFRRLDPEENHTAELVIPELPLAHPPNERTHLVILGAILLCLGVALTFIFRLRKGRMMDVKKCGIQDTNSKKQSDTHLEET

[10] = target: T2, full length cyno PD-L1 on cells; experiment: FACS CHO-K1-cPD-L1, 0.001 nM mAb
Method: as §1

[11] = target: T2, full length cyno PD-L1 on cells; experiment: FACS CHO-K1-cPD-L1, 0.1 nM mAb
Method: as §1

Binder | Mean fluorescence intensity [1] | OD450 nm [2] | OD450 nm [3] | binding result [4] | OD450 nm [5] | OD450 nm [6] | IC50 (read off the curve) [7] | OD450 nm [8] | IL-2 (pg/mL), MLR donor1, 0.001 µg/mL mAb [9] | IL-2 (pg/mL), MLR donor1, 0.01 µg/mL mAb [9] | IL-2 (pg/mL), MLR donor1, 0.1 µg/mL mAb [9] | IL-2 (pg/mL), MLR donor1, 1 µg/mL mAb [9] | IL-2 (pg/mL), MLR donor1, 10 µg/mL mAb [9] | Mean fluorescence intensity [10] | Mean fluorescence intensity [11]
chimeric anti-PD-L1 antibody 105C5D7 (antibody, V domains shown, Purified from hybridoma of Harbour H2L2 mice: human variable regions, rat constant regions) VH: EVQLVESGGGLVQPGGSLRLSCAASGFTFSSYWMSWVRQAPGKGLEWVANIKQDGNEKYYVDSVKGRFTISRDNAKNSLYLQMNSLRAEDTAVYYCARNIKWGDAFDIWGQGTMVTVSS VL: DIQMTQSPSSLSASVGDRVTITCRASQSISSYLNWYQQKPGKAPKLLIYAASSLQSGVPSRFSGSGSGTDFTLTISSLQPEDFAIYSCQQSYSIPLTFGGGTKVEIK | 83.8 | 2.64 | 0.214 | no binding | 1.32 | 1.32 | – | – | – | – | – | – | – | – | –
chimeric anti-PD-L1 antibody 78A11F6 (antibody, V domains shown, Purified from hybridoma of Harbour H2L2 mice: human variable regions, rat constant regions) VH: EVQLVESGGGLVQPGGSLRLSCAASGITFSSYWMSWVRQTPGKGLEWVANIKQDGSEKYYVKSVKGRFTISRDNAKNSLYLQMNSLRAEDTAVYYCVRDRAVPGTGAFDIWGQGTMVIVSS VL: DIQMTQSPSTLSASVGDRVTITCRASQSISNWLAWYQQKPGKAPKLLIYKASSLESGVPSRFSGSGSGTEFTLTISSLQPDDFATYYCQQYDSSLFTFGQGTKLEIK | 74.5 | 2.71 | 0.205 | no binding | 1.92 | 1.86 | – | – | – | – | – | – | – | – | –
chimeric anti-PD-L1 antibody 73G11B3 (antibody, V domains shown, Purified from hybridoma of Harbour H2L2 mice: human variable regions, rat constant regions) VH: EVQLVESGGGLVQPGGSLRLSCVVSGFTFSSYWMSWVRQTPGKGLEWVANIKQDGSEKYYVDSVKGRLTISRDNAKNSLYLQMNSLRAEDTAVYYCVRDRAVPGTGALDIWGQGTMVTVSS VL: not shown | – | – | – | – | – | – | ~0.5 nM | 0.88 | 216 pg/mL | 365 pg/mL | 453 pg/mL | 426 pg/mL | 477 pg/mL | 2.02 | 19.8
chimeric anti-PD-L1 antibody 127D2F3 (antibody, V domains shown, Purified from hybridoma of Harbour H2L2 mice: human variable regions, rat constant regions) VH: EVQLVESGGGLVQPGGSLRLSCVASGFTFSSYWMSWVRQAPGKGLEWVANIKQDGSEKYYVDSVKGRLTISRDNAKNSLYLQMKSLRAEDTAVYYCARDPIYSSYFDYWGQGILVTVSS VL: DIQMTQSPSSLSASVGDRVTITCRASQSISNYLNWYQQKPGKAPKLLIYAASSLQSGVPSRFSGSGSGTDFTLTISSLQPEDFAAYYCQQSYGIPFTFGPGTKVDIK | – | – | – | – | – | – | ~0.4 nM | 1.65 | 226 pg/mL | 274 pg/mL | 429 pg/mL | 497 pg/mL | 440 pg/mL | 1.91 | 14.3
chimeric anti-PD-L1 antibody 192D9E7 (antibody, V domains shown, Purified from hybridoma of Harbour H2L2 mice: human variable regions, rat constant regions) VH: EVQLVESGGGLVQPGGSLRLSCAASGFTFSSYWMSWVRQAPGKGLEWVADIKQDGSEKYYVDSVKGRFTISRDNAKNSLYLQMNSLRAEDTAVYYCTRDKPHWGGVMDAWGQGTSVTVSS VL: not shown | – | – | – | – | – | – | – | 1.55 | 211 pg/mL | 371 pg/mL | 473 pg/mL | 461 pg/mL | 488 pg/mL | 1.93 | 17
chimeric anti-PD-L1 antibody 73D3G2 (antibody, V domains shown, Purified from hybridoma of Harbour H2L2 mice: human variable regions, rat constant regions) VH: EVQLVESGGGLVQPGGSLRLSCAASGFTFNTYWMNWVRQAPGRGLEWVANIKQDGGEKYYVDSVKGRFTISRDNAKNSLYLQMNSLRAEDTAMYYCARDGRSWYPDAFDIWGQGTVVTVSS VL: DIQMTQSPSTLSASVGDRVTITCRASQSISTWLAWYQQKLGKAPKLLIYEVSILESGVPSRFSGSGSGTEFTLTISSLQPDDFATYYCQQYHSFSSFGGGTRVEIK | 83.2 | 2.75 | 0.156 | no binding | 1.81 | 1.81 | – | – | – | – | – | – | – | – | –
